Measured values published in a protein production outcome set (Wang et al. 2014).

Assay: label from the status in PepcDB records

Row | Sequence | protein production
1 | MAGFSSLIPRTLLKRAVSSATRNLTAPLASISAARNLFIGGGCDENYGEPGVFSHSNGIRKYNTVGNAGALTGPFHHLLGVNQTNKPAFLRVQSMSYQFVADSHSSPKRIVKNEDEEDFSDSSKKGNAENPRKHQIGENIPKKDKIKFLVNTLLDIEDNKEAVYGALDAWVAWERNFPIASLKIVIASLEKEHQWHRMVQVIKWILSKGQGNTMGTYGQLIRALDMDRRAEEAHVIWRKKVGNDLHSVPWQLCLQMMRIYFRNNMLQELVKLFKDLESYDRKPPDKHIVQTVADAYELLGMLDEKERVVTKYSHLLLGTPSDDKPSRSSRKKKKPELRIPEATTEGAVDAAKAEIQEERKENLDNHQESEAATEKQFEHGA | failed
2 | MDFHIRKATNSDAEAIQHVATTSWHHTYQDLIPSDVQDDFLKRFYNVETLHNRISATPFAVLEQADKVIGFANFIELEKGKSELAAFYLLPEVTQRGLGTELLEVGMTLFHVPLPMFVNVEKGNETAIHFYKAKGFVQVEEFTEDFYGYPLETIRFNLNH | not failed
3 | MIFMNMVNRERELQALKKRLSSNDLELIIIYGRRRIGKTFLIINAVNGYDFIYYLATEKNNLRKFKELTESKYEDIKYVKEDWEAIFHYLRDKIIIIDEFPYMIKEDESILSTFQKIVDETLKGSKTKLILLGSSISMMEDAISYKSPLYGRRTASIELKELKFKDLKGFNFSLIDAIHVYGFAGGVPFYLTKAKTPFLKWINAELKEVDSFIKDEIDFMLRYEFSEIGTYKEILHAISSGKNTLGEIKDFVRISGDVSSYLNKLEKIGIIGKEFPYKMKKGARYYIKDNFTLFWFTFIYPNLSLIEEGIYEIKEDEYNVYLGRIFEKIAREYVEDVYKVKVERLWFKDVEIDIYGDGIAGECKWSEGINGEKVLYELKRKVEDLGLDVKKYIIFAKSFSKTNEEAEFIDLKKLEQWYRTLEHHHHHH | not failed
4 | MMLSATQPLSEKLPAHGCRHVAIIMDGNGRWAKKQGKIRAFGHKAGAKSVRRAVSFAANNGIEALTLYAFSSENWNRPAQEVSALMELFVWALDSEVKSLHRHNVRLRIIGDTSRFNSRLQERIRKSEALTAGNTGLTLNIAANYGGRWDIVQGVRQLAEKVQQGNLQPDQIDEEMLNQHVCMHELAPVDLVIRTGGEHRISNFLLWQIAYAELYFTDVLWPDFDEQDFEGALNAFANRERRFGGTEPGDETA | not failed
5 | MIISFVIQVGLFPDSLERKVIRHIENGDHLTCFLFLNYLHVLIQGFSFGGYRVLYKERELSRICPAIRFQRKSFTEVRMILSHHPSFSLVNDPQEIAQIAEWGEEQIAQYKERVTGEGKQRDIDRGKPMAQASLDEAAFLLNLASLEGTWDESLERVAQCYKEAGLNDIAKFVLYRD | failed
6 | MNQPTSETRTVVVERELPHSPEKIWRALTQPHLIEAWLMKSDFEPVAGRTFSFHADWGSVDCTLLTIEPERVLSYTWAAYGLESVVTWTLTPTPGGTLLRMEQAGFRADQEQAYRGAQQGWVRFFDSLEQVVARADEDEEGRA | failed
7 | MSSITADNAGQYGDSRKLAARARLHSQYTIAETAWFPWVAAQLSLKPGDRVLDVGCGPAWFWAATTGLLPADLDLTLTDLSPGMVDEAVARCSALPFGSVRGCQADAAALPFEDGAFDAVVAMHMLYHLTDPVAGIADMSRVLKPGGLLAVTTNGAGNMREIYALTTLFGSAPSDPAAEAFGYDAAERSMRSQFGNVTMSQHPASLRITEPEDVFLALTSYPPGDGAGEPQLTRFRQAIADAFSQRSGVLEVSKETALFLSRKTV | failed
8 | MMLITERRSPFYPNIQNVPPSVIRKLVKNKAITLIDVRQPWEYEDHHIPGSILLPLDYFKELFPLVLSKNNLVKNGVAIICEHANRSTWLVYTEPSLFKEVKVYNMLGGIELWMIMGYEIEKGMDDNGTLWYKLLTKNLGLEHHHHHH | failed
9 | MVKATKAEKKIAYDTKLCQLIDEYTQILVVAADNVGSTQLQNIRKGLRGDSVVLMGKNTMMKRSVRIHSENTGNTAILNLLPLLQGNVGLIFTKGDLKEVSEEVAKYKVGAPARVGLVAPIDVVVQPGNTGLDPSQTSFFQVLNIPTKINKGTVEIITPVELIKQGDKVGSSEAALLAKLGIRPFSYGLVVQSVYDNGSVFSPEVLDLTEDQLVEKFASGISMVTSLALAVSYPTLAAAPHMFINAYKNALAIAVATEYTFPQAEKVKEYLKDPSKFAVASVAAVSADAGGGAPAAAKVEEKEESDEEDYGGDFGLFDEE | failed
10 | MAVQRVQETQRHSSRVLVPQHAGQFHPVGLRHLSTGPGLHRRSVLRSARVLAKSSIDQPPGQHAQGAVMLRTPFSPRLEGWLLVALAVLLIGAGLGMRQPQNVDEERFLGVALEMLQNGSWFVPHRAAEIYADKPPLFMWTVAFFIWLTGSPNIALYLPGLLSAGTITAVLYDLGNRLWERRIGRYAALLFLATYQTYSILRTGQIDSFLCLWVALGFYGLVRHLLLGPAWGWFYFSCAAMGLGIISKGVGFVPALMLIPYAYAVRKNWHGVVRMPGQAARWALGLLVTLIACCLWLVPMVISVVRDGGPEGFAYLHEILLHQTANRYASAWDHREPFWYFLVNVIPQYWLPLVFALPWLIPAWRRQLSKQDGRVLVLLGWVLLVLLFFSLSSGKRKLYIFPALPGLVLVAAPLVPWLLRRWFRERVLARRIVPTIVVVWLALWFARGFIEPVVEGENPHKELMEQAAEVTHGADLVLVNWREGHWLYARQPMVHFGFAHALANERAASWLREHPGTFALVPGELLANCFLPEKAHPLGKTSRADWFLVDAQADNGVCRPERPPEVYRFAWKQNAQ | failed
11 | MKDAKSFNDLYKASIYTMLGSIYAPSGGVIAAPTTSLPEVEGGKRNWDYRFAWVRDSSIIAEALLEAGSIVEARRIINFLLSLINFSSKPFYYPLYTIEGTIPPPERELRWLSGYKNSKPVRIGNGASSQIQLDIEGFFISALYKYVKMTNDQVFLKDVFSKVKYIGDWISENWSLKDSGIWEDRGSPQHYTHSKIMMWIALDKIGKLANLIGYADIWAKEREKLRNWIFTNCVKNNYFIRYCGNTDDVDSSLLSAPLYGFIEVSDSTFINTLTKIENDLKTDVFVKRYKTDFMGEAKHPFLLTTVWLARVYMRLGKIDSAIEILNKINKVSRELHLVGEHVDVEKGEFTGNFPQIFVHAQLVIAIKELNDTLEHHHHHH | failed
12 | MLAQKNTNKKPFGNTLTNILCKDKKKKNLDPQISSLVSLVDNMDITQEKKDKIKNLSLKYINSRDVKEKNESINELQKYSNNEECKEQMDSYLMHLRMQNDIKCLKRKNLWNNIGINSITLSLIIIMIMIACMFAIYSTAQYIYVPASFLLIFIIYIVARYFPDMKIGFKKLKTKLNTFFQNKKQITK | failed
13 | MDKDYYKIMGVSQDASEKDIKMAYRKLARKYHPDISKEPDAEERFKEMAEAYEVLKDPKKRSEYDQYLKYKEFNPQSDGFTGRRTQEQPFQEFHFDSDFFETLFGHSRYQQQPMTGQNYHGKITISLEEAYHGAVKNLQVPVEQGTETKIQTLKVKIPAGVKSGQQIRLAGQGGSGSGGGARGDLYLTVEVMKHPIFDVMENDIYLTLPVTPWEAALGATVVIPTLAGKIDLKIPPGSQGGQKLRIKNRGLPGSPPGNQYVLLKIITPPAQTEEAKALYKKMAEVMPYNPRKTMGV | failed
14 | MASNMDREMILADFQACTGIENIDEAITLLEQNNWDLVAAINGVIPQENGILQSEYGGETIPGPAFNPASHPASAPTSSSSSAFRPVMPSRQIVERQPRMLDFRVEYRDRNVDVVLEDTCTVGEIKQILENELQIPVSKMLLKGWKTGDVEDSTVLKSLHLPKNNSLYVLTPDLPPPSSSSHAGALQESLNQNFMLIITHREVQREYNLNFSGSSTIQEVKRNVYDLTSIPVRHQLWEGWPTSATDDSMCLAESGLSYPCHRLTVGRRSSPAQTREQSEEQITDVHMVSDSDGDDFEDATEFGVDDGEVFGMASSALRKSPMMPENAENEGDALLQFTAEFSSRYGDCHPVFFIGSLEAAFQEAFYVKARDRKLLAIYLHHDESVLTNVFCSQMLCAESIVSYLSQNFITWAWDLTKDSNRARFLTMCNRHFGSVVAQTIRTQKTDQFPLFLIIMGKRSSNEVLNVIQGNTTVDELMMRLMAAMEIFTAQQQEDIKDEDEREARENVKREQDEAYRLSLEADRAKREAHEREMAEQFRLEQIRKEQEEEREAIRLSLEQALPPEPKEENAEPVSKLRIRTPSGEFLERRFLASNKLQIVFDFVASKGFPWDEYKLLSTFPRRDVTQLDPNKSLLEVKLFPQETLFLEAKE | not failed
